Assay: soluble on expression in E. coli; label from the status in PepcDB or PDB records

Row | Sequence | soluble on expression in E. coli
1 | GAMGSGGGGEHQHGEEMMAAVPAPDAEGAAGFDEFPIGEDRDVGPLHVGGVYFQPVEMHPAPGAQPSKEEADCHIEADIHANEAGKDLGYGVGDFVPYLRVVAFLQKHGSEKVQKVMFAPMNAGDGPHYGANVKFEEGLGTYKVRFEIAAPSHDEYSLHIDEQTGVSGRFWSEPLVAEWDDFEWKGPQW | soluble
2 | GAMSSIFINREYLLPDYIPDELPHREDQIRKIASILAPLYREEKPNNIFIYGLTGTGKTAVVKFVLSKLHKKFLGKFKHVYINTRQIDTPYRVLADLLESLDVKVPFTGLSIAELYRRLVKAVRDYGSQVVIVLDEIDAFVKKYNDDILYKLSRINSEVNKSKISFIGITNDVKFVDLLDPRVKSSLSEEEIIFPPYNAEELEDILTKRAQMAFKPGVLPDNVIKLCAALAAREHGDARRALDLLRVSGEIAERMKDTKVKEEYVYMAKEEIERDRVRDIILTLPFHSKLVLMAVVSISSEENVVSTTGAVYETYLNICKKLGVEAVTQRRVSDIINELDMVGILTAKVVNRGRYGKTKEIGLAVDKNIIVRSLIESDSRFADLWS | soluble
3 | GAVETLQGKAATGELLEKSVNTIRFLAIDAVEKANSGHPGLPMGCAPMGHVLYDEVMRYNPKNPYWFNRDRFVLSAGHGCMLQYALLHLAGYDSVKEEDLKQFRQWGSRTPGHPENFETPGVEVTTGPLGQGIANAVGLALAEKHLAARFNKPDSEIVDHYTYVILGDGCQMEGIANEACSLAGHWGLGKLIAFYDDNHISIDGDTEIAFTEDVSTRFEALGWHTIWVKNGNTGYDDIRAAIKEAKAVTDKPTLIKVTTTIGFGSPNKANSYSVHGSALGAKEVEATRQNLGWPYDTFFVPEDVKSHWSRHTPEGAALEADWNAKFAEYEKKYADDAATLKSIITGELPTGWVDALPKYTPESPGDATRNLSQQCLNALANVVPGLIGGSADLASSNMTLLKMFGDFQKDTAEERNVRFGVREHGMGAICNGIALHSPGFVPYCATFFVFTDYMRGAMRISALSEAGVIYVMTHDSIGLGEDGPTHQPIEHLVSFRAMPNILMLRPADGNETAGAYKVAVLNRKRPSILALSRQKLPHLPGTSIEGVEKGGYTISDNSTGNKPDLIVMGTGSELEIAAKAADELRKEGKTVRVVSFVSWELFDEQSDEYKESVLPAAVTARISIEAGSTLGWQKYVGAQGKAIGIDKFGASAPAGTIYKEYGITVESIIAAAKSF | soluble
4 | GEPPTQKPKKIVNAKKDVVNTKMFEELKSRLDTLSQEVALLKEQQALQTVCLKGTKVHMKCFLAFTQTKTFHEASEDCISRGGTLSTPQTGSENDALYEYLRQSVGNEAEIWLGLNDMAAEGTWVDMTGARIAYKNWETEITAQPDGGKTENCAVLSGAANGKWFDKRCRDQLPYICQFGIV | soluble
5 | GETLDGEAALQAAIARLAAGDIVAIKGIGGFHLACDAGNPAAVATLRARKHRPAKPLAVMLPTATGLPAAAAALMGSPAAPIVLIAKAQVSGLCDEIAPGLAEVGVMLPSNPLQHLLLQGLARPIVMTSGNLSGRPPALSNAQALNELADIADGFLLHNRDIVQRMDDSLVRSSGEMLRRARGYVPDALPL | not soluble
6 | GFIELHAHLAFQKVPADIVLRHGVTTLRDVGGPVHPPYGGEGSLRVLTSGRIITAPHGYPIVTMGARDLAIPVASEAEAREAVRHLVGEGAVIIKIALEPGSEAGAPWSSHHDHAHHDAAHTASAVTHHHAHAASHDQSAWPMLPEPIVKAVVDEAHRHQRKVSAHVAEPSGVQVALNAGVDEWAHMPCNPIPEPLLKQARAQNVTIIGTLDTLSKCSGIAHNTMVWTELGGELLYGTEIAHPDIPWGIDAQELMYLMHLGKMKLLDALGAATAKAGRYLGIPMLGTIQPGAPADLIAIRGNPEQQLKRLEYPDLVISGGHIVVNHFSSLP | not soluble
7 | GFVNVTGMFRDRARTNRADGNQLILFDQSDFPNGVAPPSGFPFAYPQVAGIIGEEAAQNARRIDNQILNQRGLERSDFQFRVGQSAVQQRAVFLNSEVGLGNDATLYAFGGLSYKNGIGAPFRRLPFSTSAMPYRASNTDPALFPNGFQPEMNSDVVDQSLTIGVEGTIGGWTWDLSNSYGRNSLDYQMDNTVNASLLQASPTSIYAGGHAFSQNVTNLDVSRFFDDALAGINVAFGGAYRTDRYQIFSGEEASYRNYGRVQLIDDTSAASPRLVTRDTLGKEPGTQGFVGFRPENEVDRTRSNVAAYLDTEVNLTENLLVTAAGRYENYSDFGGTLNGRLAARWGLLDGRLNLRGSASTGFRAPSLHQIYFNEVRT | not soluble
8 | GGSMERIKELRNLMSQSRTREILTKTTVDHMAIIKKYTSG | soluble
9 | GHMYAIAEDTLPARVLKELLLYRRRYPEHRQSASEADEIRRIEQVQLPRIAAFIEAGEPIEFVLPAFPAKSPNPGKVLDSRPDMAERLSLSFLNHLCQRIQLFYAPGAKITVCSDGRVFGDLVRIGDAHISAYQDALRLMIEEIGATHIGVFNLEDVRAFEAQRDNHEQLRQLLIGGYAEPLESIRETLLASEEGLLLYRAITRFLYEDGLTPDYQGSKTALQRDAKERAYGVIQRSWAWGALLADQFPRAIRLSIHPQPADSLKFGIHMMPTRDDWLTPWHGVAVNTEDRFVLMKRSEVLELGGELVQINGQPSHYRLPARAARRAAVA | soluble
10 | GHMYEVDHADVYDLFYLGRGKDYAAEASDIADLVRSRTPEASSLLDVACGTGTHLEHFTKEFGDTAGLELSEDMLTHARKRLPDATLHQGDMRDFRLGRKFSAVVSMFSSVGYLKTTEELGAAVASFAEHLEPGGVVVVEPWWFPETFADGWVSADVVRRDGRTVARVSHSVREGNATRMEVHFTVADPGKGVRHFSDVHLITLFHQAEYEAAFTAAGLRVEYLEGGPSGRGLFVGVPA | soluble
11 | GIKDSPVNKVEPNDTLEKVFVSVTKYPDEKRLKGLSKQLDWSVRKIQCWFRHRRNQDKP | soluble
12 | GILELAGTVGCVGPRTPIAYMKYGCFCGLGGHGQPRDAIDWCCHGHDCCYTRAEEAGCSPKTERYSWQCVNQSVLCGPAENKCQELLCKCDQEIANCLAQTEYNLKYLFYPQFLCEPDSPKCD | soluble
13 | GKIILFEDVEFGGKKLELETSVSDLNVHGFNDIVSSIIVESGTWFVFDDEGFSGPSYKLTPGKYPNPGSWGGNDDELSSVKQQ | soluble
14 | GKRLYNVKQSALSIRQIDLQRRHIEQSIRMGIKNQNDRLRTCMQRFVASEEAVRSAEKGYQIAEKRYQTGEGTLVELNDADVALLQARLNYNQAIFDFMTAKAELDKMNGMGIPEQ | not soluble
15 | GLGRKPHTRILSFEKLEADKFICQHLNLSLGEAVFKLSRLRIADNEPLMVEDTYLPVKFFLSLTDQLLRSKPLYDLFSEDFKQTVRLADEELYASIASKEDAKLLMIPEGAPVLHLARQTYNMKNEIIEFTLSVARADQFHYQIRHIRNS | soluble
16 | GLNPPSAFSGAALACLEKMQASGVEEKCIHIFLIQHALVRKGETGYIPEKSISPVESLPFLQGIETKGENTALLRQAVVLKLNGGLGTGMGLNGPKSLLQVKNGQTFLDFTALQLEHFRQVRNCNVPFMLMNSFSTSGETKNFLRKYPTLYEVFDSDIELMQNRVPKIRQDNFFPVTYEADPTCEWVPPGHGDVYTVLYSSGKLDYLLGKGYRYMFISNGDNLGATLDVRLLDYMHEKQLGFLMEVCRRTESDKKGGHLAYKDVIDETTGQTRRRFVLRESAQCPKEDEDSFQNIAKHCFFNTNNIWINLMELKKMMDEQLGVLRLPVMRNPKTVNPQDSQSTKVYQLEVAMGAAISLFDRSEAVVVPRERFAPVKTCSDLLALRSDAYQVTEDQRLVLCEERNGKPPAIDLDGEHYKMIDGFEKLVKGGVPSLRQCTSLTVRGLVEFGADVSVRGNVVIKNLKEEPLIIGSGRVLDNEVVVVE | soluble
17 | GLPRHSAVMERLRRRIELCRRHHSTCEARYEAVSPERLELERQHTFALHQRCIQAKAKRAGKH | soluble
18 | GLVAPGYKMATVAVDHLLGNTESKFEGADMSAKLKLLGVKVGSIGDANGRTEGCKSYVYQNEEQEVYKRLIVSEDNKKLLGAVLVGDTSDYGDLLQLMLNEIDLPEHPDALILPAHAGAEKPALGADALPESAVICSCFDVTKGKIAQAVADGHHTLGDIK | not soluble
19 | GMAQAQTQGQEEEQKKKILIVVTHGPEDLDRTYAPLFMASISASMEYETSVFFMIKGPKLLDKKWQEEERKKGGNPFIHFFDMAKENGVKMYVCVQSLKDMCHMKEDDVVEGIELVGGSTLIDLTLEADRTLFF | soluble
20 | GMATEKYHEILKKYFLSFETGDFSQVQFSCNLEFLSPISGNTLKGTEEVIPFLKGVTTRVAEVNIMSTTVEYPRASGVWQMRTTKGTLYTLHNFFRLDEEGIVYVWPMFDPKAVMENPDALIQWLTGKDY | soluble
21 | GMDIMLNTADISAAAILLPVEGAQLSELRQIPAEGGPVLHMLRLDSPQFSQFGEIYFSEVLPRRVKAWKRHSLMTQLFAVPVGCIHVVLYDGREKSPTSGRLAQVTLGRPDNYRLLRIPPQVWYGFAATGDTPALVANCTDIPHRQGESERAPQDAPFIPFSWAGADLSGTPVM | soluble
22 | GMDVFSEYLAGIADPFHRERTEEVLTWIKNKYPNLHTEIKWNQPMFTDHGTFIIGFSVSKKHLAVAPEKVTIAHVEDDIVKAGYDYTEQLIRIPWNGPVDYTLLEKMIEFNILDKADCSTFWRK | soluble
23 | GMEPIMRNPEDALLDSWHQNAQAWIDAVRHGAIESRRQVTDQAILLAILGRQPERVLDLGCGEGWLLRALADRGIEAVGVDGDRTLVDAARAAGAGEVHLASYAQLAEAKVPVGKDYDLICANFALLHQDIIELLSAMRTLLVPGGALVIQTLHPWSVADGDYQDGWREESFAGFAGDWQPMPWYFRTLASWLNALDMAGLRLVSLQEPQHPQSAVPQSLLMVAERH | soluble
24 | GMHFSKEHINALETRTRAHFINSLSGFKSANLIGTQDRQGNTNLSIVSSVIHLGANPPLMGMIIRPHSVPRHTFENIMQTGLYTINHVNQSIYEQAHQTSARYDKDESEFEATGLTPEYLSDFCAPFVKESRLKYSVKLVEHQHLAINGTEFVIGEIVDVYVDDNAVQTDGFIDLQAIDTVAISGLDCYYTGDKLARLPYAKK | soluble
25 | GMNKEVDLSVSCLGKVKELKYDVIILPWGATEPHNLHLPYLTDCILPHDIAVEAAELALSRSGVRCMVMPPVPFGAHNPGQRELPFCIHTRYATQQAILEDIVSSLHVQGFRKLLILSGHGGNNFKGMIRDLAFEYPDFLIAAANWFEVVSPKGYFEAEIDDHAGESETSVMMHYHPELVNLAEAGDGESKPFAIASLNEKVAWVPRHWDKATVDSGVGNPKKATAEKGERYVKPIVEKLAGLFEEMAQHDLYE | soluble
26 | GMNLANIVQRGWEALGAGDFDTLVTDYVEKMIFIMPGQADVLKGRQAFRSALDNLGEILPPGFEITGLRQLEGENEIVSIVEWKSDKMIASQLSVLFKFEGDQIYEERWFVDTEQWKSVF | soluble
27 | GMNLTELMERIPHLREILNIVREAFKDYDDPAHDISHTFRVMENASEIASREKCDLQKAIIAALLHDIKRPHEALTGVDHAESGAEYASGLLPTMGFDISFVAEVSKAIRSHRYSGGLTPTSLTGKILQDADRLDAIGAVAIARVFSYSGKTGTPLHSLQFSPRSSYSGNSRSSINHFHEKILKIRPETFWTETARKMAEDRYSFVVEFVQRFLAEWGQI | soluble

Reference: the DeepSol protein solubility set
